B2: Dbf4 (natural protein, Saccharomyces cerevisiae, UniProt P32325 1-704, looked up)
chain: MVSPTKMIIRSPLKETDTNLKHNNGIAASTTAAGHLNVFSNDNNCNNNNTTESFPKKRSLERLELQQQQHLHEKKRARIERARSIEGAVQVSKGTGLKNVEPRVTPKELLEWQTNWKKIMKRDSRIYFDITDDVEMNTYNKSKMDKRRDLLKRGFLTLGAQITQFFDTTVTIVITRRSVENIYLLKDTDILSRAKKNYMKVWSYEKAARFLKNLDVDLDHLSKTKSASLAAPTLSNLLHNEKLYGPTDRDPRTKRDDIHYFKYPHVYLYDLWQTWAPIITLEWKPQELTNLDELPYPILKIGSFGRCPFIGDRNYDESSYKRVVKRYSRDKANKKYALQLRALFQYHADTLLNTSSVNDQTKNLIFIPHTCNDSTKSFKKWMQEKAKNFEKTELKKTDDSAVQDVRNEHADQTDEKNSILLNETETKEPPLKEEKENKQSIAEESNKYPQRKELAATPKLNHPVLATFARQETEEVPDDLCTLKTKSRQAFEIKASGAHQSNDVATSFGNGLGPTRASVMSKNMKSLSRLMVDRKLGVKQTNGNNKNYTATIATTAETSKENRHRLDFNALKKDEAPSKETGKDSAVHLETNRKPQNFPKVATKSVSADSKVHNDIKITTTESPTASKKSTSTNVTLHFNAQTAQTAQPVKKETVKNSGYCENCRVKYESLEQHIVSEKHLSFAENDLNFEAIDSLIENLRFQI
notes: Dbf4, Saccharomyces cerevisiae, full length (41% resolved in the map); Subunit of m1, written alone for the contacts seen in the cryo-EM structures; also called dumbbell former 4; source: budding yeast cells, purified as subunit of DDK

How the values were obtained:
Experiment in all cases: cryo-EM structure; MD-(ATPγS): 250 nM DH released from beads by AluI + 750 nM DDK, 10 min 24 °C, buffer C with 3 mM ATPγS; GraFix glycerol gradient with glutaraldehyde; states I-III
Details in all cases: both partners purified
Mcm4 = target: T1, Mcm4 (Saccharomyces cerevisiae, UniProt P30665 1-933)
T1 construct: Mcm4, Saccharomyces cerevisiae, full length; Subunit of m2, written alone for the contacts seen in the cryo-EM structures
T1 sequence (looked up): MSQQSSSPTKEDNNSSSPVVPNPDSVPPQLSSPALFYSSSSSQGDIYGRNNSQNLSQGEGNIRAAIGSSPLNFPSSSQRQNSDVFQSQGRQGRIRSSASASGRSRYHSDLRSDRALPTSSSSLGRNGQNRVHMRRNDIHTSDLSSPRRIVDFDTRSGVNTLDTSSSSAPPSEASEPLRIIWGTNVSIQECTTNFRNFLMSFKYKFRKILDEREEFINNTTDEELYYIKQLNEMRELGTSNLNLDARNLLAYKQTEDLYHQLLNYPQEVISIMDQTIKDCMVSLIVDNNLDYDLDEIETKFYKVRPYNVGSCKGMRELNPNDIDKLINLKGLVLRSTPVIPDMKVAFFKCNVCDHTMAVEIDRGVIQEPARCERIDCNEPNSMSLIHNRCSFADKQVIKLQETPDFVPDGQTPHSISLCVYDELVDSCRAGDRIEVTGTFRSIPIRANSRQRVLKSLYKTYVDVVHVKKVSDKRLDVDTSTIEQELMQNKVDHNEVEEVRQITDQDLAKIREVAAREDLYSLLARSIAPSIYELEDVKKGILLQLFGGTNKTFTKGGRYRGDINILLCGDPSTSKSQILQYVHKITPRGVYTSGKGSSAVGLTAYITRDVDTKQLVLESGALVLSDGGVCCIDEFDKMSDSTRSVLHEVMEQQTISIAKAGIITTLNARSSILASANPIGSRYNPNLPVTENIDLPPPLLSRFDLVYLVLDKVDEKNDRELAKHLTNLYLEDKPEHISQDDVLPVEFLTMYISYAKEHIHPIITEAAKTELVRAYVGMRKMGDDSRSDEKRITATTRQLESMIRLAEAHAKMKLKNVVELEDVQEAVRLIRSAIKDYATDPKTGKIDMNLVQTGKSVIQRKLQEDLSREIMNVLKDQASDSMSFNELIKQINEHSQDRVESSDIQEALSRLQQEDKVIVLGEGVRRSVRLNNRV

Dbf4 = target: B2
Mcm6 = target: T2, Mcm6 (Saccharomyces cerevisiae, UniProt P53091 1-1017)
T2 construct: Mcm6, Saccharomyces cerevisiae, full length; Subunit of m2, written alone for the contacts seen in the cryo-EM structures
T2 sequence (P53091 whole entry): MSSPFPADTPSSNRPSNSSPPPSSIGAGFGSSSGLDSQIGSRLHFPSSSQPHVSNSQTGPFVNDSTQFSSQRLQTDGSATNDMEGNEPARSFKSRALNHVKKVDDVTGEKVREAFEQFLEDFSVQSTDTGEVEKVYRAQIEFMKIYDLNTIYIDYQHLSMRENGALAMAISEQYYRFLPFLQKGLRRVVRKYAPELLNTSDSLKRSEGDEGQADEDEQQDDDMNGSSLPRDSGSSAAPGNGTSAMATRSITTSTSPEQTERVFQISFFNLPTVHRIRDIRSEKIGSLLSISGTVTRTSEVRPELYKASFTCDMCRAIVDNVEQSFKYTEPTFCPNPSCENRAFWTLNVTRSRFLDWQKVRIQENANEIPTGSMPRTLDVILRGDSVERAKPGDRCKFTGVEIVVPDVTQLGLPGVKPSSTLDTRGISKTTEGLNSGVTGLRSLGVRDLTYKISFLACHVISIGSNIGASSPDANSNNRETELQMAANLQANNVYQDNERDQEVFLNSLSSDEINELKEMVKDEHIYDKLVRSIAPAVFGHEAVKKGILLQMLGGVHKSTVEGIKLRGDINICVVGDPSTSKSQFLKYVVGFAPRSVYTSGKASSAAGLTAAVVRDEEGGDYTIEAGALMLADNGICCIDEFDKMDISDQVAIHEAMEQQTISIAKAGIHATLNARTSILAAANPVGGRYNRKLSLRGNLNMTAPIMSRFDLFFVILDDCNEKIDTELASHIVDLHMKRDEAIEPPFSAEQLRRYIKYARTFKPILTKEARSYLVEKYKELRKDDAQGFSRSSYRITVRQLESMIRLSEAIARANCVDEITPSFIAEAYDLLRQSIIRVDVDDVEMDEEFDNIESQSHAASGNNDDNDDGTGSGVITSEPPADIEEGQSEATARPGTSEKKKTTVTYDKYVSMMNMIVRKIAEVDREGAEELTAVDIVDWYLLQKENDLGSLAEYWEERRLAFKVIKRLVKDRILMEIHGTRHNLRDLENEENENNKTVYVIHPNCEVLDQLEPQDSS

Mcm2 = target: T3, Mcm2 (Saccharomyces cerevisiae, UniProt P29469 1-868)
T3 construct: Mcm2, Saccharomyces cerevisiae, full length; Subunit of m2, written alone for the contacts seen in the cryo-EM structures
T3 sequence (looked up): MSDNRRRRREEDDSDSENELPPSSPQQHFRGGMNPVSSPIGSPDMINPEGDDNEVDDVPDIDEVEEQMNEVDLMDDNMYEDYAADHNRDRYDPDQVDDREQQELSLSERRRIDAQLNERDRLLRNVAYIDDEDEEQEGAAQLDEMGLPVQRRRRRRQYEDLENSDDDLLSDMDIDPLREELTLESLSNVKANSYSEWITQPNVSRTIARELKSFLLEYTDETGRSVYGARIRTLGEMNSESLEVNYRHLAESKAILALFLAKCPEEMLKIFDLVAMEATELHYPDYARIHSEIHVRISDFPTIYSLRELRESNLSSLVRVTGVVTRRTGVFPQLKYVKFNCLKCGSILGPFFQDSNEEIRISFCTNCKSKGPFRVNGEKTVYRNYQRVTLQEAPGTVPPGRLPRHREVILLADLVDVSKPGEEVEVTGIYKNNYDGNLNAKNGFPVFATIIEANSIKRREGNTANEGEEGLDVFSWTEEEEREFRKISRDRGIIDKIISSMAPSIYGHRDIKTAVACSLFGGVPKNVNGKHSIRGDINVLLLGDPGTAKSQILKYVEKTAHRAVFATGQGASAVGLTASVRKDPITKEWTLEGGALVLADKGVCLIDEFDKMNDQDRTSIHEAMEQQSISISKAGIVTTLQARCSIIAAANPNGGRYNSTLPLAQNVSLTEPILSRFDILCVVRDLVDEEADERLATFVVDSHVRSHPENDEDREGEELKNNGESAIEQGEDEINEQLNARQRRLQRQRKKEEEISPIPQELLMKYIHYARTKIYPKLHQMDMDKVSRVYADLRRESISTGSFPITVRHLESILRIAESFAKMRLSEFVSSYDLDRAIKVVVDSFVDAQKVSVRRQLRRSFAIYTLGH

Mcm7 = target: T4, Mcm7 (Saccharomyces cerevisiae, UniProt P38132 1-845)
T4 construct: Mcm7, Saccharomyces cerevisiae, full length; Subunit of m2, written alone for the contacts seen in the cryo-EM structures
T4 sequence (looked up): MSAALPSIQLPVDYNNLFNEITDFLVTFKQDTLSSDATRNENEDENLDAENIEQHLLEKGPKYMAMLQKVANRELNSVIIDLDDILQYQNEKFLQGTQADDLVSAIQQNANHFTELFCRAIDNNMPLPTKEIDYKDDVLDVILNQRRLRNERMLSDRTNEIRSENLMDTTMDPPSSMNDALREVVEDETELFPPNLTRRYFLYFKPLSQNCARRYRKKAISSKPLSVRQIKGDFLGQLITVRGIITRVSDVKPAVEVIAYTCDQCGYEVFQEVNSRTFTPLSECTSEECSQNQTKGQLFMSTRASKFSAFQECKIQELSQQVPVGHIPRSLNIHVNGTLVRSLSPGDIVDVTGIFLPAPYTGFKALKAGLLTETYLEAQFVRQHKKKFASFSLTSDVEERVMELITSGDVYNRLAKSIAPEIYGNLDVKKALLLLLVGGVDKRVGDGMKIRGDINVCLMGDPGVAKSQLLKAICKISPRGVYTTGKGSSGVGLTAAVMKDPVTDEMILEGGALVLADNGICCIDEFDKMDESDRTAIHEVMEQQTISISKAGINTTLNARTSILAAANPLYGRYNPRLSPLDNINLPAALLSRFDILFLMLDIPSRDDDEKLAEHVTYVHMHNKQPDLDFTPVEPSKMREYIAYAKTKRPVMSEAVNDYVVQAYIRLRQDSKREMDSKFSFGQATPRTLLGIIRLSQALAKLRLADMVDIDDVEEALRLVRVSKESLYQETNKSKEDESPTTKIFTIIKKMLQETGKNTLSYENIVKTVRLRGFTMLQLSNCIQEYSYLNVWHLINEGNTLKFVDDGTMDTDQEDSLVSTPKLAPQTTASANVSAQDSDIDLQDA

Measured: binding result

B1: Cdc7 (enzyme, Saccharomyces cerevisiae, UniProt P06243 1-507, looked up)
chain: MTSKTKNIDDIPPEIKEEMIQLYHDLPGIENEYKLIDKIGEGTFSSVYKAKDITGKITKKFASHFWNYGSNYVALKKIYVTSSPQRIYNELNLLYIMTGSSRVAPLCDAKRVRDQVIAVLPYYPHEEFRTFYRDLPIKGIKKYIWELLRALKFVHSKGIIHRDIKPTNFLFNLELGRGVLVDFGLAEAQMDYKSMISSQNDYDNYANTNHDGGYSMRNHEQFCPCIMRNQYSPNSHNQTPPMVTIQNGKVVHLNNVNGVDLTKGYPKNETRRIKRANRAGTRGFRAPEVLMKCGAQSTKIDIWSVGVILLSLLGRRFPMFQSLDDADSLLELCTIFGWKELRKCAALHGLGFEASGLIWDKPNGYSNGLKEFVYDLLNKECTIGTFPEYSVAFETFGFLQQELHDRMSIEPQLPDPKTNMDAVDAYELKKYQEEIWSDHYWCFQVLEQCFEMDPQKRSSAEDLLKTPFFNELNENTYLLDGESTDEDDVVSSSEADLLDKDVLLISE
notes: Cdc7 serine/threonine kinase, Saccharomyces cerevisiae, full length (87% resolved in the map); Subunit of m1, written alone for the contacts seen in the cryo-EM structures; also called Cdc7 kinase; Cdc7 serine/threonine kinase; source: budding yeast cells, purified as subunit of DDK
binds: Mcm4 | Dbf4

B2
not listed: Dbf4
binds: all other assays above
